Data set [1] deals with the molecule itself. The data set is described as follows: bead aggregation assay, 1.25 mM CaCl2. The protocol: Dynabeads (Dynal Biotech) coupled to Protein A were coated with N-cadherin Fc at 1 μg/ml in calcium and magnesium-free HBSS containing 0.1% Tween 20, 1% FCS and 4 mM EDTA. Eppendorf tubes containing beads and fusion protein were rotated slowly for 1 hour at room temperature to allow binding to take place. The beads were then washed in the above assay buffer lacking EDTA and then resuspended in the same buffer supplemented with 1.25 mM CaCl₂. Beads were allowed to aggregate in a volume of 100 μl for 2 hours at 37° C. by slow rotation, in an eppendorf tube, at approximately 20 rpm. Aggregation was then assessed by light microscopy.
In the experiments described so far in this example, disruption of the salt bridge prevented intramolecular docking of Trp 2 in one or both components of the dimer. In an alternative strategy to prevent intramolecular docking, we removed Trp2 by introducing the mutation W2G or blocked the hydrophobic acceptor pocket with an isoleucine side chain projecting into the cavity using the mutation A801. N-cadherin Fc fusion proteins with these mutations were then tested against our panel of K562 transfectants (FIG. 17a). In keeping with the explanation given in FIG. 5, the W2G mutant acted as a strand acceptor and therefore adhered strongly to the E89A mutant whereas the A80I mutant was a strand donor and adhered to the GG extension mutant. […] In contrast, beads coated with the W2G or A801 mutants and tested separately clustered in twos and threes, whereas beads coated with the negative control mutant, D134A, were entirely monodisperse. To test whether all five extracellular domains of N-cadherin (EC1-EC5) are necessary for the strong adhesive interaction between the complementary mutants, we compared the adhesive activity of the W2G mutant prepared as a full length (EC1-EC5) Fc fusion protein with that of the same mutant prepared as a truncated construct containing only cadherin domains EC1 and EC2.

Data set [2] concerns the target T1, mouse N-cadherin with an uncleaved prodomain expressed on L cells (furin site RQKR replaced with Factor Xa … (mouse, UniProt P15116 160-906)).
T1 construct: whole, on cells; Prodomain is still attached in the assay; also called unprocessed N-cadherin; L cell transfectants expressing unprocessed N-cadherin
T1 sequence (looked up): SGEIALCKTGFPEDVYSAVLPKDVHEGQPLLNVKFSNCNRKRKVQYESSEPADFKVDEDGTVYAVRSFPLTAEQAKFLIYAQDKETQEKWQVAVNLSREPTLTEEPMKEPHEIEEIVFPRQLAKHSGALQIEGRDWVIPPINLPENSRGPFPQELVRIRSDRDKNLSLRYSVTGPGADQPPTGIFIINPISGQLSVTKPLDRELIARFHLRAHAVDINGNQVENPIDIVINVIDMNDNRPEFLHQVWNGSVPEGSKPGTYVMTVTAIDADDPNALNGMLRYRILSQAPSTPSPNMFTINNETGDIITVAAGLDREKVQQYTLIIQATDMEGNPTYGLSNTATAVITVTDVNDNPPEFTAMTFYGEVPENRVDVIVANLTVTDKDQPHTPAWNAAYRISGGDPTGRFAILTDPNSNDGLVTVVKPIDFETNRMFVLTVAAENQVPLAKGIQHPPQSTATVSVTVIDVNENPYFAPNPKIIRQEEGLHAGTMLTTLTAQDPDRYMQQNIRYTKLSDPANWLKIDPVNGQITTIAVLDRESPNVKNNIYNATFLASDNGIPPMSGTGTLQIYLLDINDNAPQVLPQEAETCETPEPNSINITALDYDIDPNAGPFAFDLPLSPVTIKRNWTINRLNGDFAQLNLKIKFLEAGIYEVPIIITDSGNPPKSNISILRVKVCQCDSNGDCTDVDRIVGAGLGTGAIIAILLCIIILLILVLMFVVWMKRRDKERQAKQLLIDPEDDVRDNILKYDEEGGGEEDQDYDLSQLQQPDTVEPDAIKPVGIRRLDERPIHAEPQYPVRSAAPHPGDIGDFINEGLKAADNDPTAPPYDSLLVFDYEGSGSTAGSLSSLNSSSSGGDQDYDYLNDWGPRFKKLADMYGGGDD
The data set is described as follows: adhesion of L cell transfectants to coated N-cadherin Fc. How it is done:
Adhesion tests were conducted substantially as described in Example 1. Briefly, K562 Cells or L cells transfected with wild type or mutant N-cadherin were allowed to settle for 45 minutes at 37° C. onto N-cadherin Fc fusion proteins coated at 1 μg/ml to a 96 well plate. Non-adherent cells were then washed off and residual adherent cells were quantitated by measuring acid phosphatase activity. Assays were conducted in quadruplicate and results are expressed as % cells adhering +/−SEM.
L cells expressing mouse N-cadherin with an uncleaved prodomain (see Koch et al., 2004) were obtained from Dr Weisong Shan (Montreal Neurological Institute). The normal furin cleavage site, RQKR, had been replaced with a Factor Xa site, IEGR, to give the correct N-terminus after digestion. […] L cells suspended in HBSS containing 0.1% BSA were treated with 0.01% trypsin (Sigma, Type XI) in the presence of 2 mM Ca²⁺ for 10 minutes at 37° C. and the digestion was then quenched with soyabean trypsin inhibitor, 0.5 mg per ml (Sigma, Type I-S). Cells were then washed and tested for adhesion to N-cadherin Fc-fusion protein. To check for complete removal of the prodomain, the cells were lysed in SDS sample buffer and the cadherin analysed by SDS PAGE under reducing conditions on a 4-12% gradient gel. […]

B1: chicken N-cadherin-Fc fusion protein with the mutation D134A, dimeric (Fc fusion, UniProt P10288 165-728, looked up)
chain: DWVIPPINLPENSRGPFPQELVRIRSDRDKSLSLRYSVTGPGADQPPTGIFIINPISGQLSVTKPLDREQIASFHLRAHAVDVNGNQVENPIDIVINVIDMNDNRPEFLHQVWNGTVPEGSKPGTYVMTVTAIAADDPNAQNGMLRYRILSQAPSSPSPNMFTINNETGDIITVAAGLDREKVQQYTLIIQATDMEGNPTYGLSNTATAVITVTDVNDNPPEFTAMTFYGEVPENRVDVIVANLTVTDKDQPHTPAWNARYQMTGGDPTGQFTILTDPNSNDGLVTVVKPIDFETNRMFVLTVAAENQVPLAKGIQHPPQSTATVSITVIDVNESPYFVPNPKLVRQEEGLLAGSMLTTFTARDPDRYMQQTSLRYSKLSDPANWLKIDPVNGQITTTAVLDRESIYVQNNMYNATFLASDNGIPPMSGTGTLQIYLLDINDNAPQVNPKEATTCETLQPNAINITAVDPDIDPNAGPFAFELPDSPPSIKRNWTIVRISGDHAQLSLRIRFLEAGIYDVPIVITDSGNPHASSTSVLKVKVCQCDINGDCTDVDRIVGAGLGT
notes: extracellular domain; also called D134A mutant; N-cadherin Fc mutant D134A; not shown: hinge region, CH2 and CH3 domains of human IgG1 heavy chain (vector pIgSig)
For B1, the values for the binding result in data set [1] and in data set [2] were “no binding (tested: beads coated at 1 µg/ml)” and “no binding (tested: Fc fusion protein coated at 1 µg/ml)”, respectively.

B2: wild type chicken N-cadherin-Fc fusion protein, dimeric (linked by disulphide bonds at the Ig hinge region) (Fc fusion, UniProt P10288 165-729, looked up)
chain: DWVIPPINLPENSRGPFPQELVRIRSDRDKSLSLRYSVTGPGADQPPTGIFIINPISGQLSVTKPLDREQIASFHLRAHAVDVNGNQVENPIDIVINVIDMNDNRPEFLHQVWNGTVPEGSKPGTYVMTVTAIDADDPNAQNGMLRYRILSQAPSSPSPNMFTINNETGDIITVAAGLDREKVQQYTLIIQATDMEGNPTYGLSNTATAVITVTDVNDNPPEFTAMTFYGEVPENRVDVIVANLTVTDKDQPHTPAWNARYQMTGGDPTGQFTILTDPNSNDGLVTVVKPIDFETNRMFVLTVAAENQVPLAKGIQHPPQSTATVSITVIDVNESPYFVPNPKLVRQEEGLLAGSMLTTFTARDPDRYMQQTSLRYSKLSDPANWLKIDPVNGQITTTAVLDRESIYVQNNMYNATFLASDNGIPPMSGTGTLQIYLLDINDNAPQVNPKEATTCETLQPNAINITAVDPDIDPNAGPFAFELPDSPPSIKRNWTIVRISGDHAQLSLRIRFLEAGIYDVPIVITDSGNPHASSTSVLKVKVCQCDINGDCTDVDRIVGAGLGTG
notes: extracellular domain; also called dimeric N-cadherin-Fc; wild type N-cadherin; not shown: hinge region, CH2 and CH3 domains of human IgG1 heavy chain (vector pIgSig)
As to B2, the binding result in data set [1] is “binds”; in data set [2], “no binding (tested: Fc fusion protein coated at 1 µg/ml)”.

These data come from patent publication US20080274950A1 (BABRAHAM INSTITUTE, published 2008).
